In patent publication EP4707304A1 (Axcynsis Therapeutics Pte. Ltd., dated 2024):
Changes are numbered by the printed parent chain. In names and notes the source's numbering stands.

B1: humanized antibody hAb-6 (antibody, V domains shown)
VH: EVKLVESGGGLVKPGGSLRLSCAASGFTFNSYTMSWVRQAPGKRLEWVVTISSGGGRTYYPDSVKGRFTISRDNAKNTLYLQMSSLRAEDTAVYYCIRGDYRYDGFAYWGQGTLVTVSS
VL: DIQMTQSPSSLSASVGDRVTITCRASENIDSYLAWYQQKPGKSPQLLVYASTLLQDGVPSRFSGSRSGTDFTLTISSLQPEDVATYYCQHYYSIPYTFGSGTKLEIK
B2: humanized antibody hAb-7 (antibody, V domains shown)
VH: B1 VH
VL: B1 VL with D70Q, T85R
B3: humanized antibody hAb-24 (antibody, V domains shown)
VH: B1 VH with A40T, G42A, K76R
VL: B1 VL with D70Q, V83F
B4: humanized antibody hAb-19 (antibody, V domains shown)
VH: B1 VH with K13Q, A40T, G42A
VL: B1 VL with D70Q, T85R
B5: humanized antibody hAb-23 (antibody, V domains shown)
VH: B1 VH with A40T, G42A, K76R
VL: B1 VL with D70Q, T85R
B6: humanized antibody hAb-14 (antibody, V domains shown)
VH: B1 VH with K13Q
VL: B1 VL
B7: humanized antibody hAb-15 (antibody, V domains shown)
VH: B1 VH with K13Q
VL: B1 VL with D70Q, T85R
B8: humanized antibody hAb-25 (antibody, V domains shown)
VH: B1 VH with A40T, G42A, K76R
VL: B1 VL with Q55V, D70Q, T72S, T85R
B9: humanized antibody hAb-18 (antibody, V domains shown)
VH: B1 VH with K13Q, A40T, G42A
VL: B1 VL
B10: humanized antibody hAb-21 (antibody, V domains shown)
VH: B1 VH with K13Q, A40T, G42A
VL: B1 VL with Q55V, D70Q, T72S, T85R
B11: humanized antibody hAb-10 (antibody, V domains shown)
VH: B1 VH with A40T, G42A
VL: B1 VL
B12: humanized antibody hAb-16 (antibody, V domains shown)
VH: B1 VH with K13Q
VL: B1 VL with D70Q, V83F
B13: humanized antibody hAb-13 (antibody, V domains shown)
VH: B1 VH with A40T, G42A
VL: B1 VL with Q55V, D70Q, T72S, T85R
B14: humanized antibody hAb-17 (antibody, V domains shown)
VH: B1 VH with K13Q
VL: B1 VL with Q55V, D70Q, T72S, T85R
B15: humanized antibody hAb-22 (antibody, V domains shown)
VH: B1 VH with A40T, G42A, K76R
VL: B1 VL
B16: humanized antibody hAb-20 (antibody, V domains shown)
VH: B1 VH with K13Q, A40T, G42A
VL: B1 VL with D70Q, V83F
B17: humanized antibody hAb-11 (antibody, V domains shown)
VH: B1 VH with A40T, G42A
VL: B1 VL with D70Q, T85R
B18: humanized antibody hAb-12 (antibody, V domains shown)
VH: B1 VH with A40T, G42A
VL: B1 VL with D70Q, V83F
B19: humanized antibody hAb-9 (antibody, V domains shown)
VH: B1 VH
VL: B1 VL with Q55V, D70Q, T72S, T85R
B20: humanized antibody hAb-8 (antibody, V domains shown)
VH: B1 VH
VL: B1 VL with D70Q, V83F
B21: humanized antibody hAb-29 (antibody, V domains shown)
VH: B1 VH with S31D, A40T, G42A
VL: B1 VL with Q55V, D70Q, T72S, T85R
notes: also called VH2VL4 with HC S31D
B22: humanized antibody hAb-34 (antibody, V domains shown)
VH: B1 VH with S31D, A40T, G42A, G105A
VL: B1 VL with Q55V, D70Q, T72S, T85R
notes: also called VH2VL4 with HC S31D/G100A
B23: humanized antibody hAb-28 (antibody, V domains shown)
VH: B1 VH with S31Q, A40T, G42A
VL: B1 VL with Q55V, D70Q, T72S, T85R
notes: also called VH2VL4 with HC S31Q
B24: humanized antibody hAb-27 (antibody, V domains shown)
VH: B1 VH with S31M, A40T, G42A
VL: B1 VL with Q55V, D70Q, T72S, T85R
notes: also called VH2VL4 with HC S31M
B25: humanized antibody hAb-30 (antibody, V domains shown)
VH: B1 VH with S31E, A40T, G42A
VL: B1 VL with Q55V, D70Q, T72S, T85R
notes: also called VH2VL4 with HC S31E
B26: humanized antibody hAb-33 (antibody, V domains shown)
VH: B1 VH with A40T, G42A, G105A
VL: B1 VL with Q55V, D70Q, T72S, T85R
notes: also called VH2VL4 with HC G100A
B27: humanized antibody hAb-26 (antibody, V domains shown)
VH: B1 VH with S31Y, A40T, G42A
VL: B1 VL with Q55V, D70Q, T72S, T85R
notes: also called VH2VL4 with HC S31Y

The binders below were run against T1, VLP-hCLDN6 (human) (UniProt P56747) (assay: ELISA, coated VLP-hCLDN6, 10 ul antibody sample, HRP-Protein A).
T1 sequence: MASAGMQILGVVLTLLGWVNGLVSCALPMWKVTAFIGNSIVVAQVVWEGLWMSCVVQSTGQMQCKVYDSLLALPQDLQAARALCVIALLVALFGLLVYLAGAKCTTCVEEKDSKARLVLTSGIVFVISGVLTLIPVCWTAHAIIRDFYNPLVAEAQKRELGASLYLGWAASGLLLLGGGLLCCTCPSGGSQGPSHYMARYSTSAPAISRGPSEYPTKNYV

Row | Binder | OD450
1 | B1 | 0.89
2 | B2 | 1.37
3 | B3 | 1.45
4 | B4 | 1.62
5 | B5 | 1.42
6 | B6 | 0.22
7 | B7 | 1.39
8 | B8 | 1.69
9 | B9 | 1.17
10 | B10 | 2.05
11 | B11 | 1.18
12 | B12 | 1.26
13 | B13 | 1.68
14 | B14 | 1.6
15 | B15 | 1.12
16 | B16 | 1.38
17 | B17 | 1.41
18 | B18 | 1.36
19 | B19 | 1.71
20 | B20 | 1.27

What follows are binders tested against T1, VLP-hCLDN6 (human) (assay: ELISA, coated VLP-hCLDN6, 100 ul antibody sample, HRP-Protein A).

Row | Binder | OD450
21 | B1 | 1.55
22 | B2 | 1.73
23 | B3 | 1.94
24 | B4 | 1.7
25 | B5 | 1.82
26 | B6 | 0.97
27 | B7 | 1.78
28 | B8 | 2.05
29 | B9 | 1.68
30 | B10 | 2.23
31 | B11 | 1.5
32 | B12 | 1.39
33 | B13 | 1.95
34 | B14 | 1.93
35 | B15 | 1.63
36 | B16 | 1.81
37 | B17 | 1.81
38 | B18 | 1.76
39 | B19 | 1.84
40 | B20 | 1.84

These binders were tested against T2, VLP-hCLDN6 (human, UniProt P56747 1-220) (assay: ELISA on coated VLP-hCLDN6).
T2 construct: also called VLP-CLDN6; AT-003-ag1
T2 sequence: T1 sequence

Row | Binder | EC50
41 | B21 | 0.29 nM
42 | B22 | 0.89 nM
43 | B23 | 0.19 nM
44 | B24 | 0.12 nM
45 | B25 | 0.29 nM
46 | B26 | 0.31 nM
47 | B27 | 0.1 nM

Each binder was assayed against T1, VLP-hCLDN6 (human) (assay: ELISA, coated VLP-hCLDN6, 10 ul antibody sample (second well), HRP-Protein A).

Row | Binder | OD450
48 | B1 | 1.04
49 | B2 | 1.46
50 | B3 | 1.34
51 | B4 | 1.57
52 | B5 | 1.46
53 | B6 | 0.23
54 | B7 | 1.47
55 | B8 | 1.7
56 | B9 | 1.13
57 | B10 | 1.9
58 | B11 | 1.13
59 | B12 | 1.24
60 | B13 | 1.7
61 | B14 | 1.72
62 | B15 | 0.96
63 | B16 | 1.41
64 | B17 | 1.54
65 | B18 | 1.4
66 | B19 | 1.57
67 | B20 | 1.22

The binders below were run against T1, VLP-hCLDN6 (human) (assay: ELISA, coated VLP-hCLDN6, 100 ul antibody sample (second well), HRP-Protein A).

Row | Binder | OD450
68 | B1 | 1.61
69 | B2 | 1.91
70 | B3 | 1.87
71 | B4 | 1.79
72 | B5 | 2.05
73 | B6 | 0.99
74 | B7 | 1.8
75 | B8 | 2.24
76 | B9 | 1.52
77 | B10 | 2.45
78 | B11 | 1.51
79 | B12 | 1.71
80 | B13 | 2.26
81 | B14 | 1.78
82 | B15 | 1.65
83 | B16 | 1.68
84 | B17 | 1.8
85 | B18 | 1.67
86 | B19 | 1.94
87 | B20 | 1.88
